The source of these data is patent US6902918B1, “Oxygenase enzymes and screening method” (California Institute of Technology, priority 1998, dated 2005).

Data set [1] in a line: Colorimetric coupling of naphthol by laccase or HRP in cell solutions. The data set is classed as biochemical. The settings on record: 1-naphthol 100 uM. The procedure: Laccase was purchased from Sigma Chemicals as a crude acetone powder from the […] Rhus vernificera. […] Type II HRP (RZ approximately 2.0) and all other chemicals were purchased from Sigma. Fluorescence readings were taken with a Perkin-Elmer HTS 7000 plate reading fluorimeter. Excitation and emission wavelengths were 360 nm and 465 nm, respectively.
Experiments were performed at 25° C. in the wells of opaque, white Nunc 96-well plates with a total liquid of 200 uL. Except where stated otherwise, each well contained 10% pure ethanol to improve the solubility of substrates and products. Where HRP was used for comparison, approximately 2.3 units of HRP and 5 mM H2O2 were in each well. […] Tris buffer was not used because it increases background fluorescence. Except where stated, results are given from conditions at pH 9.0, which were either the best results or barely distinguishable from the other conditions.
In order to evaluate laccase in a useful whole cell assay to identify the formation of hydroxylated aromatic compounds by oxidative enzymes (such as cytochrome P450cam and toluene dioxygenase), laccase was added to solutions containing cells, naphthalene, and naphthol. P450cam was expressed in E. coli strain BL21(DE3) using plasmid pCWori+. BL21(DE3) cells with and without the expressed protein were grown in Terrific Broth and after 8 hours were induced with 1 mM IPTG for 24 hours. […]

For data set [2] the following is noted: ABTS assay; reported by Sigma; cited from earlier work.
A short description of data set [3]: HRP peroxidase activity test with ABTS and H2O2, expression in E. coli. Format: cell-based, E. coli BL21(DE3). The procedure:
The PCR products were ligated back into the pET-22b(+) vector which was transformed into the BL21(DE3) cells by electroporation. Cell growth and expression was carried out in either 96-well or 384-well microplates in LB medium at 30° C. Peroxidase activity tests were performed with H2O2 and ABTS (32).
IPTG was omitted in all HRP expression experiments, unless otherwise specified. Peroxidase activity tests for HRP were performed with a classical peroxidase assay, ABTS and hydrogen peroxide (26). Fifteen μl of cell suspension was mixed with 140 μl of ABTS/H2O2 (2.9 mM ABTS, 0.5 mM H2O2, pH 4.5) in microplates, and the activity was determined with a SpectraMax plate reader (Molecular Devices, Sunnyvale, Calif.) at 25° C. A unit of HRP is defined as the amount of enzyme that oxidizes 1 μmole of ABTS per min at the assay conditions.

Data set [4] can be described thus: Stability of mutant HRP at 4° C.
A short description of data set [5]: Whole cell naphthalene hydroxylation assay, P450cam in E. coli with added HRP, 96-well plate. The data set is classed as cell-based. The settings on record: TB and 1.3 mM ALA, 100 μL volume.
Data set [6] is described as follows: Fluorescence image analysis of colonies on agar plates with naphthalene and hydrogen peroxide. Format: cell-based, E. coli BL21(DE3). Particulars: naphthalene as substrate.
The format of data set [7] is cell-based, E. coli. The settings on record: for Relative rate towards naphthalene (generation of fluorescence per time): whole cells, 96-well plate.
A short description of data set [8]: 96-well plate whole cell assay of P450cam variants, generation of fluorescence per time, 3-phenylpropionate. The data set is classed as cell-based, E. coli. The settings on record: for Relative rate towards 3-phenylpropionate (generation of fluorescence per time): whole cells, 96-well plate. As to the method:
(§1) For the microtitre plate assay, the cells (grown in 4 ml TB/amp (100 ug/ml) media) were centrifuged for 10 min at 4° C. After the supernatant solution was removed, the harvested cells were carefully resuspended in 1 ml buffer solution (dibasic phosphate, 100 mM, pH 9.0). Then, 20 μl aliquots were placed into a Nunc fluorescence microplate. The total 180 μl reaction mixture was made up of 100 μl dibasic sodium phosphate buffer (100 mM, pH9.0), 20 μl ethanol, 10 μl substrate stock (4.5 mM coumarin in 10% ethanol, or 2 mM 3-phenylpropionate in 10% ethanol, 2 mM naphthalene in pure ethanol), and 10 μl hydrogen peroxide stock solution (50 mM H2O2 stock). The other reaction conditions are those described in EXAMPLE 2. The fluorescence was measured as a function of time, and the relative rates presented in Table 2 are the slopes of that measurement (RFU/min).

Data set [9] is described as follows: 96-well plate whole cell assay of P450cam variants, generation of fluorescence per time, coumarin. The data set is classed as cell-based, E. coli. The settings on record: whole cells. The procedure: as §1

Where a chain is given by its changes, count along the chain named.

B1: HRP: horseradish peroxidase; purchased from Sigma (type II) or expressed from synthetic gene in pETpelBHRP (protein, listed as Escherichia coli)
chain: MQLTPTFYDNSCPNVSNIVRDTIVNELRSDPRIAASILRLHFHDCFVNGCDASILLDNTTSFRTEKDAFGNANSARGFPVIDRMKAAVESACPRTVSCADLLTIAAQQSVTLAGGPSWRVPLGRRDSLQAFLDLANANLPAPFFTLPQLKDSFRNVGLNRSSDLVALSGGHTFGKNQCRFIMDRLYNFSNTGLPDPTLNTTYLQTLRGLCPLNGNLSALVDFDLRTPTIFDNKYYVNLEEQKGLIQSDQELFSSPDATDTIPLVRSFANSTQTFFNAFVEAMDRMGNITPLTGTQGQIRLNCRVVNSNS
Consider B1, for which the “time for color change from light yellow to dark brown” value in data set [1] is “approximately 1 minute”. Besides, the “total activity of 1 mg of highly purified HRP” value in data set [2] was 1,000 units. For the same molecule, the “peroxidase activity in cells induced with IPTG” value in data set [3] (1 mM IPTG) was “no peroxidase activity above background”. Also, the “activity against ABTS in cells not induced with IPTG” value in data set [3] (no IPTG) is given as “weak but measurable activity”.

B2: HRP1A6: horseradish peroxidase mutant, Asn255 changed to Asp, SEQ. ID. NO. 17 (protein, listed as Escherichia coli)
chain: B1 chain
As to B2, the stability result in data set [4] is “stable for up to a week”. The total activity entry in [3] (ABTS assay) is listed as “greater than 100 units/L”. Also, the “peroxidase activity on addition of IPTG” value in data set [3] (as little as 5 μM of IPTG added) was “markedly decreased activity”. The “concentration of active HRP” value in data set [3] (estimated from ABTS activity) was ~100 µg/L. The “higher peroxidase activity than the parent clone” value in data set [3] (first generation, no IPTG added) is on record as 10-14 fold. Also, in data set [3] (judged by the ABTS activity), the “share of HRP activity found in the LB culture medium” value is on record as “greater than 95%”.

B3: WT: native cytochrome P450cam monooxygenase of P. putida, SEQ. ID. NO. 2 (protein)
chain: TTETIQSNANLAPLPPHVPEHLVFDFDMYNPSNLSAGVQEAWAVLQESNVPDLVWTRCNGGHWIATRGQLIREAYEDYRHFSSECPFIPREAGEAYDFIPTSMDPPEQRQFRALANQVVGMPVVDKLENRIQELACSLIESLRPQGQCNFTEDYAEPFPIRIFMLLAGLPEEDIPHLKYLTDQMTRPDGSMTFAEAKEALYDYLIPIIEQRRQKPGTDAISIVANGQVNGRPITSDEAKRMCGLLLVGGLDTVVNFLSFSMEFLAKSPEHRQELIERPERIPAACEELLRRFSLVADGRILTSDYEFHGVQLKKGDQILLPQMLSGLDERENACPMHVDFSRQKVSHTTFGHGSHLCLGQHLARREIIVTLKEWLTRIPDFSIAPGAQIQHKSGIVSGVQALPLVWDPATTKAV
modifications: P. Putida
As to B3, the “total activity (whole cell naphthalene hydroxylation)” value in data set [5] is 430 RFU/min. Besides, in [6], the “colony fluorescence in digital scan” value is given as ~320 fluorescence units.

B4: M7-6H (protein)
chain: B3 chain with R280L, E331K
modifications: Mutant M7-6H
With B4, in data set [7] (from Table 2 data), the “increased activity over the wild type, naphthalene hydroxylation” value is listed as 9.4 fold. The “Relative rate towards naphthalene (generation of fluorescence per time)” value in [7] amounted to 86.7 RFU/min. Also, the “increase in activity on 3-phenylpropionate compared to wild-type” value in [8] (another series of experiments) is recorded as 3.2 fold. The “Relative rate towards 3-phenylpropionate (generation of fluorescence per time)” value in [8] is on record as 43.6 RFU/min. The “Relative rate towards coumarin (generation of fluorescence per time)” value in data set [9] came to 14.1 RFU/min.

B5: M7-8H (protein)
chain: B3 chain with C242F, E331K
modifications: Mutant M7-8H
As to B5, the “Relative rate towards naphthalene (generation of fluorescence per time)” value in data set [7] is 53.1 RFU/min. For the same molecule, in data set [8], the “Relative rate towards 3-phenylpropionate (generation of fluorescence per time)” value came out at 35.4 RFU/min. For the same molecule, the “Relative rate towards coumarin (generation of fluorescence per time)” value in data set [9] is reported as 12.8 RFU/min.

B6: M7-4H (protein)
chain: B3 chain with E331K
modifications: Mutant M7-4H
In the case of B6, the “Relative rate towards naphthalene (generation of fluorescence per time)” value in data set [7] turned out to be 84.1 RFU/min. Further, in [8], the “Relative rate towards 3-phenylpropionate (generation of fluorescence per time)” value is given as 42.8 RFU/min. In [9], the “Relative rate towards coumarin (generation of fluorescence per time)” value is given as 11.5 RFU/min.
